± gives the standard deviation of the averaged measurements.
Legend:
Saccharomyces cerevisiae [1] = test: protein stability index of tFT-peptide fusion (C-terminal peptide) (PSI (0-1 scale)); higher = more stable (slower turnover)
Protocol: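 MPS profiling in S. cerevisiae of the tFT-X12 degron library: putative degron peptides plus stable controls, 12 aa, fused to the C-terminus of a sfGFP-mCherry timer. Cells are FACS-sorted into 8 mCherry/sfGFP bins and deep-sequenced. PSI runs from 0 (unstable) to 1 (stable). Backgrounds are wild type, das1Δ and doa10Δ at 30 °C, and wild type, das1Δ, cdc34-1 and cdc53-1 at 37 °C; 2-3 technical replicates each.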

Saccharomyces cerevisiae [2] = test: as above; conditions: genetic background: wild type; temperature: 30 C
[3] = genetic background: cdc34-1, temperature: 37 C
[4] = genetic background: cdc53-1, temperature: 37 C
[5] = genetic background: das1 deletion, temperature: 30 C
[6] = genetic background: das1 deletion, temperature: 37 C
[7] = genetic background: doa10 deletion, temperature: 30 C
[8] = genetic background: wild type, temperature: 30 C
[9] = genetic background: wild type, temperature: 37 C
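Also: PSI is a weighted mean of sequencing reads over stability bins, variants kept only with over 10 reads, mCherry proximal and sfGFP distal, peptide attached via GGGS linker.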

Sequence | protein stability index (Saccharomyces cerevisiae [1]; [3]) | protein stability index (Saccharomyces cerevisiae [1]; [4]) | protein stability index (Saccharomyces cerevisiae [1]; [5]) | protein stability index (Saccharomyces cerevisiae [1]; [6]) | protein stability index (Saccharomyces cerevisiae [1]; [7]) | protein stability index (Saccharomyces cerevisiae [1]; [8]) | protein stability index (Saccharomyces cerevisiae [1]; [9]) | protein stability index (Saccharomyces cerevisiae [2])
RVWIVCYHVSSY | 0.214 ± 0.016 | 0.3264 ± 0.00073 | 0.204 ± 0.024 | 0.371 ± 0.011 | 0.196 ± 0.0097 | 0.207 ± 0.0069 | 0.349 ± 0.022 | 0.262 ± 0.076
RWSEHGFLVFLS | 0.643 ± 0.022 | 0.736 ± 0.012 | 0.664 ± 0.016 | 0.7408 ± 0.0018 | 0.156 ± 0.015 | 0.158 ± 0.015 | 0.373 ± 0.04 | 0.301 ± 0.021
SARSYLTERLLA | 0.6255 ± 0.0024 | 0.714 ± 0.016 | 0.599 ± 0.021 | 0.721 ± 0.022 | 0.13 ± 0.018 | 0.162 ± 0.022 | 0.239 ± 0.0068 | 0.252 ± 0.0087
SASPFYLPPPPV | 0.709 ± 0.024 | 0.7371 ± 0.0058 | 0.679 ± 0.043 | 0.735 ± 0.017 | 0.675 ± 0.018 | 0.671 ± 0.023 | 0.731 ± 0.012 | 0.735 ± 0.024
SAVLFLLFVYVR | 0.0536 ± 0.0084 | 0.081 ± 0.012 | 0.156 ± 0.026 | 0.234 ± 0.011 | 0.1678 ± 0.00051 | 0.14 ± 0.046 | 0.176 ± 0.023 | 0.254 ± 0.0093
SCIFVSSYFFVF | 0.417 ± 0.0029 | 0.465 ± 0.057 | 0.364 ± 0.025 | 0.506 ± 0.012 | 0.179 ± 0.0043 | 0.18 ± 0.02 | 0.307 ± 0.00077 | 0.251 ± 0.02
SCLRVYFSVVVS | 0.231 ± 0.013 | 0.295 ± 0.048 | 0.286 ± 0.037 | 0.389 ± 0.015 | 0.258 ± 0.0076 | 0.288 ± 0.017 | 0.36 ± 0.027 | 0.359 ± 0.031
SCLSLALLVFFG | 0.442 ± 0.014 | 0.524 ± 0.031 | 0.36 ± 0.019 | 0.523 ± 0.014 | 0.315 ± 0.0051 | 0.349 ± 0.02 | 0.515 ± 0.039 | 0.411 ± 0.061
SFFFSFFPYFFC | 0.6386 ± 0.0014 | 0.675 ± 0.02 | 0.606 ± 0.06 | 0.732 ± 0.023 | 0.401 ± 0.012 | 0.394 ± 0.017 | 0.561 ± 0.015 | 0.4425 ± 0.0029
SFTVFVVLLFPP | 0.311 ± 0.021 | 0.437 ± 0.05 | 0.284 ± 0.032 | 0.476 ± 0.024 | 0.288 ± 0.013 | 0.304 ± 0.0095 | 0.4293 ± 0.00063 | 0.323 ± 0.062
SFVGCWFVLLVR | 0.0307 ± 0.0085 | 0.0395 ± 0.0077 | 0.138 ± 0.024 | 0.235 ± 0.003 | 0.193 ± 0.0003 | 0.122 ± 0.025 | 0.159 ± 0.0049 | 0.179 ± 0.036
SFWLFSSIGVCF | 0.594 ± 0.035 | 0.5958 ± 0.004 | 0.461 ± 0.031 | 0.578 ± 0.017 | 0.4316 ± 0.00081 | 0.465 ± 0.011 | 0.5772 ± 0.0052 | 0.512 ± 0.019
SGMLVYFGTVCY | 0.502 ± 0.0077 | 0.599 ± 0.13 | 0.341 ± 0.03 | 0.577 ± 0.014 | 0.318 ± 0.028 | 0.357 ± 0.0091 | 0.511 ± 0.027 | 0.4498 ± 0.0028
SKSRKTGWMLIS | 0.622 ± 0.055 | 0.743 ± 0.029 | 0.632 ± 0.033 | 0.74 ± 0.013 | 0.156 ± 0.014 | 0.164 ± 0.033 | 0.427 ± 0.022 | 0.153 ± 0.015
SLFSPPVLATPS | 0.668 ± 0.031 | 0.7094 ± 0.0039 | 0.572 ± 0.018 | 0.705 ± 0.011 | 0.556 ± 0.02 | 0.569 ± 0.022 | 0.6797 ± 0.0026 | 0.0217 ± 0.0033
SLGHIGFWRFAG | 0.554 ± 0.0087 | 0.709 ± 0.0081 | 0.66 ± 0.009 | 0.77 ± 0.011 | 0.103 ± 0.018 | 0.108 ± 0.013 | 0.169 ± 0.0063 | 0.191 ± 0.011
SLLFVFVSVGCI | 0.0483 ± 0.0074 | 0.147 ± 0.0097 | 0.148 ± 0.03 | 0.246 ± 0.035 | 0.116 ± 0.0038 | 0.148 ± 0.025 | 0.166 ± 0.023 | 0.253 ± 0.016
SLRSLYLLARLS | 0.518 ± 0.061 | 0.689 ± 0.047 | 0.636 ± 0.033 | 0.732 ± 0.012 | 0.076 ± 0.017 | 0.0777 ± 0.024 | 0.0971 ± 0.015 | 0.194 ± 0.021
SLSPVFVAVWFL | 0.466 ± 0.012 | 0.4933 ± 0.0015 | 0.383 ± 0.057 | 0.537 ± 0.01 | 0.323 ± 0.0075 | 0.331 ± 0.016 | 0.474 ± 0.026 | 0.432 ± 0.013
SLVLLLLITFSL | 0.431 ± 0.023 | 0.507 ± 0.015 | 0.376 ± 0.025 | 0.527 ± 0.014 | 0.377 ± 0.016 | 0.373 ± 0.02 | 0.495 ± 0.021 | 0.491 ± 0.017

Sequence | protein stability index (Saccharomyces cerevisiae [1]; [3]) | protein stability index (Saccharomyces cerevisiae [1]; [4]) | protein stability index (Saccharomyces cerevisiae [1]; [5]) | protein stability index (Saccharomyces cerevisiae [1]; [6]) | protein stability index (Saccharomyces cerevisiae [1]; [7]) | protein stability index (Saccharomyces cerevisiae [1]; [8]) | protein stability index (Saccharomyces cerevisiae [1]; [9]) | protein stability index (Saccharomyces cerevisiae [2])
SNFFPVPLLLFR | 0.211 ± 0.0084 | 0.117 ± 0.024 | 0.309 ± 0.016 | 0.383 ± 0.0094 | 0.647 ± 0.024 | 0.297 ± 0.019 | 0.327 ± 0.031 | 0.383 ± 0.088
SPCFLDPPRLIS | 0.663 ± 0.031 | 0.728 ± 0.025 | 0.681 ± 0.022 | 0.7568 ± 0.0044 | 0.287 ± 0.018 | 0.328 ± 0.032 | 0.536 ± 0.02 | 0.388 ± 0.025
SPLHGFLFLVLL | 0.395 ± 0.03 | 0.445 ± 0.0069 | 0.403 ± 0.025 | 0.523 ± 0.012 | 0.528 ± 0.024 | 0.403 ± 0.028 | 0.496 ± 0.021 | 0.424 ± 0.021
SPLLPPPLLFLS | 0.596 ± 0.056 | 0.7307 ± 0.0032 | 0.6555 ± 0.0025 | 0.729 ± 0.009 | 0.1475 ± 0.0013 | 0.168 ± 0.033 | 0.241 ± 0.033 | 0.211 ± 0.0097
SRDSLLTLIPSC | 0.646 ± 0.058 | 0.733 ± 0.0095 | 0.6189 ± 0.002 | 0.7393 ± 0.0043 | 0.622 ± 0.017 | 0.636 ± 0.013 | 0.697 ± 0.0081 | 0.692 ± 0.037
SRLVIGRWSVLV | 0.567 ± 0.045 | 0.617 ± 0.016 | 0.492 ± 0.03 | 0.6346 ± 0.0035 | 0.177 ± 0.013 | 0.217 ± 0.034 | 0.442 ± 0.0031 | 0.318 ± 0.019
SRPEPNGLRKLV | 0.587 ± 0.009 | 0.727 ± 0.015 | 0.605 ± 0.029 | 0.751 ± 0.018 | 0.139 ± 0.024 | 0.172 ± 0.024 | 0.315 ± 0.052 | 0.293 ± 0.069
SSAPTIVIWRFS | 0.672 ± 0.041 | 0.724 ± 0.026 | 0.592 ± 0.031 | 0.7 ± 0.0079 | 0.401 ± 0.024 | 0.428 ± 0.011 | 0.6081 ± 0.0015 | 0.495 ± 0.027
SSGSLLLPRFLT | 0.658 ± 0.038 | 0.7301 ± 0.0046 | 0.672 ± 0.023 | 0.734 ± 0.019 | 0.222 ± 0.019 | 0.243 ± 0.038 | 0.54 ± 0.037 | 0.387 ± 0.03
SSLLPLLAQLVG | 0.594 ± 0.046 | 0.7484 ± 0.0013 | 0.581 ± 0.05 | 0.68255 ± 0.00041 | 0.252 ± 0.014 | 0.265 ± 0.039 | 0.411 ± 0.01 | 0.406 ± 0.05
SSMSAVFRLQVC | 0.567 ± 0.0096 | 0.657 ± 0.0093 | 0.613 ± 0.017 | 0.662 ± 0.0092 | 0.228 ± 0.001 | 0.232 ± 0.015 | 0.299 ± 0.049 | 0.276 ± 0.017
SSRPLSPQSLRL | 0.637 ± 0.2 | 0.709 ± 0.043 | 0.601 ± 0.051 | 0.71 ± 0.0077 | 0.60715 ± 0.00031 | 0.605 ± 0.067 | 0.658 ± 0.032 | 0.553 ± 0.17
SSVCLYWCCLFV | 0.522 ± 0.036 | 0.602 ± 0.013 | 0.443 ± 0.041 | 0.535 ± 0.016 | 0.407 ± 0.0018 | 0.426 ± 0.027 | 0.5166 ± 0.00058 | 0.432 ± 0.011
SSVCYFGLLFIV | 0.452 ± 0.038 | 0.561 ± 0.015 | 0.44 ± 0.026 | 0.623 ± 0.034 | 0.103 ± 0.0046 | 0.103 ± 0.022 | 0.139 ± 0.022 | 0.184 ± 0.0042
SVFRFLFLALLV | 0.2 ± 0.052 | 0.162 ± 0.018 | 0.282 ± 0.029 | 0.352 ± 0.023 | 0.173 ± 0.0056 | 0.145 ± 0.0078 | 0.18 ± 0.016 | 0.191 ± 0.016
SVFVFFGFIDFL | 0.52 ± 0.015 | 0.589 ± 0.12 | 0.404 ± 0.036 | 0.6007 ± 0.0035 | 0.369 ± 0.015 | 0.412 ± 0.036 | 0.581 ± 0.0099 | 0.469 ± 0.011
SVLASFFSAFVC | 0.459 ± 0.0087 | 0.6975 ± 0.0014 | 0.598 ± 0.011 | 0.7258 ± 0.0054 | 0.118 ± 0.015 | 0.118 ± 0.023 | 0.149 ± 0.0027 | 0.195 ± 0.01
SVLLVFRFFWEL | 0.417 ± 0.012 | 0.461 ± 0.018 | 0.397 ± 0.026 | 0.5056 ± 0.0022 | 0.295 ± 0.018 | 0.292 ± 0.029 | 0.445 ± 0.0082 | 0.405 ± 0.098
SVLVWVFGLFVI | 0.411 ± 0.012 | 0.525 ± 0.013 | 0.431 ± 0.024 | 0.56 ± 0.012 | 0.42 ± 0.028 | 0.392 ± 0.028 | 0.495 ± 0.015 | 0.446 ± 0.012

— the supplement of paper PMC10724198
